The target of assay [1] is T1, human wildtype TMPRSS2 ectodomain (activated, two-chain) (human, UniProt O15393-1 107-255; O15393-1 256-492).
T1 construct: TMPRSS2, human, UniProt O15393-1; held to the SP domain by a disulfide bond after cleavage; Expressed as one chain 107-492 with an Ig kappa leader; also called Human TMPRSS2; Hu TMPRSS2; source: FreeStyle 293 F (HEK293F), co-transfected with full-length HAI-2; purified from the supernatant (G25, Ni-NTA IMAC, size-exclusion chromatography)
The assay is described as follows: enzyme inhibition kinetics (tight-binding inhibition, fit to the Morrison equation); 50 pM human or hamster TMPRSS2 incubated with a 2/3-fold serial dilution of HAI-2 (300 to 5.2 pM) for 16 hours at room temperature; rates on the fluorogenic substrate Boc-Gln-Ala-Arg-AMC; equilibrium inhibitory constant; triplicate. The following applies: both partners purified.

Assay [2] deals with T2, Syrian hamster wildtype TMPRSS2 ectodomain (activated, two-chain) (Syrian hamster (Mesocricetus auratus), UniProt A0A1U8C7X1 108-254; A0A1U8C7X1 255-491).
T2 construct: TMPRSS2, Syrian hamster (Mesocricetus auratus), UniProt printed as 'A0A1U8C7 × 1'; N-terminal non-catalytic part of the ectodomain construct 108-491 up to the arginine of the scissile bond, R254; Expressed as one chain 108-491 with an Ig kappa leader; also called Hamster TMPRSS2; Ham TMPRSS2; source: FreeStyle 293 F (HEK293F), co-transfected with full-length HAI-2; purified from the supernatant …
T2 sequence (chain, as listed by the source, chain 1 of 2): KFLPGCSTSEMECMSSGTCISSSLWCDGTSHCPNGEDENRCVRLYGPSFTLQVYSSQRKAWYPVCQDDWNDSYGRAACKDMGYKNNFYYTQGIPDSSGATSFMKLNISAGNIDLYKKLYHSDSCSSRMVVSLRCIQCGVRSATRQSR
T2 sequence (chain, as listed by the source, chain 2 of 2): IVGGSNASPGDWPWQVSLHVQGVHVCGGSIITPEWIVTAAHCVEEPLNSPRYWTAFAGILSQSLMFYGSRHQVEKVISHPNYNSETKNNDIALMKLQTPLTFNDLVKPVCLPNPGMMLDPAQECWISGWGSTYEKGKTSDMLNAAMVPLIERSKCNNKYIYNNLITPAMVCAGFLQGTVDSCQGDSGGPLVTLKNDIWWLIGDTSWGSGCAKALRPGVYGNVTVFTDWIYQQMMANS
The assay is described as above. As to conditions: both partners purified.

T1 sequence (O15393 107-255, chain 1 of 2): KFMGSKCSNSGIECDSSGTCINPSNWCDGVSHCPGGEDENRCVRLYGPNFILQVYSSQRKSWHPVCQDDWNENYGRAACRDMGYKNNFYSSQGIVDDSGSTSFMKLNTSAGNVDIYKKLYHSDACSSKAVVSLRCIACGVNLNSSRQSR
T1 sequence (O15393 256-492, chain 2 of 2): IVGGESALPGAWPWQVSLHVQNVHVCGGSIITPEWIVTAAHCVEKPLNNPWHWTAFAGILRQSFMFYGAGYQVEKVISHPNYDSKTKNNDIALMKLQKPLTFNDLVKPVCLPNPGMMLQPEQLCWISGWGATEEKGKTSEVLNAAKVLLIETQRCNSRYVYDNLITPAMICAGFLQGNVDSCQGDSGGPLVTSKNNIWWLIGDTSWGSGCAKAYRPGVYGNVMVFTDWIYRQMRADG

B1: human HAI-2 (hepatocyte growth factor activator inhibitor-2) ectodomain (domain or fragment, UniProt O43291-1 36-196, looked up)
chain: DFCLVSKVVGRCRASMPRWWYNVTDGSCQLFVYGGCDGNSNNYLTKEECLKKCATVTENATGDLATSRNAADSSVPSAPRRQDSEDHSSDMFNYEEYCTANAVTGPCRASFPRWYFDVERNSCNNFIYGGCRGNKNSYRSEEACMLRCFRQQENPPLPLGS
notes: source: FreeStyle 293 F (HEK293F), pcDNA3.1; purified (Ni-NTA IMAC, size-exclusion chromatography)
In general, Ki refers to a measure of affinity in units of concentration, obtained from inhibition or displacement. Low values mean tighter binding, high ones weaker binding. As for B1, the figures for the Ki in assay [1] and in assay [2] were 4.6 pM and 0.7 pM, respectively.

(Values after article PMC12794319 (Biochemical Journal, 2025).)
